Patent US20250179176A1, “ANTI-TIGIT ANTIBODIES AND USES OF THE SAME” (ARCUS BIOSCIENCES, INC., priority 2022, published 2025)

Experiment: Clinical safety of domvanalimab, 99 participants (AB154CSP0001 and ARC-7): TEAEs, related AEs, SAEs
Type: in vivo, human
Conditions: for Any TEAEs / TEAE Diarrhoea / TEAE Fatigue / TEAE Nausea / TEAE Pruritus: Table 15

B1: domvanalimab: anti-TIGIT antibody with engineered IgG1 Fc, reduced FcγR binding; heavy chain SEQ ID NO: 12, light chain SEQ ID NO: 13 (antibody)
heavy: EVQLVESGGGLVQPGGSLRLSCAASGFTFSNFGMHWVRQAPGKGLEWVAFISSGSSSIYYADTVKGRFTISRDNAKNSLYLQMNSLRAEDTAVYYCARMRLDYYAMDYWGQGTMVTVSSASTKGPSVFPLAPSSKSTSGGTAALGCLVKDYFPEPVTVSWNSGALTSGVHTFPAVLQSSGLYSLSSVVTVPSSSLGTQTYICNVNHKPSNTKVDKKVEPKSCDKTHTCPPCPAPEAAGGPSVFLFPPKPKDTLMISRTPEVTCWVDVSHEDPEVKFNWYVDGVEVHNAKTKPREEQYNSTYRWSVLTVLHQDWLNGKEYKCKVSNKALPAPIEKTISKAKGQPREPQVYTLPPSRDELTKNQVSLTCLVKGFYPSDIAVEWESNGQPENNYKTTPPVLDSDGSFFLYSKLTVDKSRWQQGNVFSCSVMHEALHNHYTQKSLSLSPGK
light: DIQMTQSPSSLSASVGDRVTITCRASKSISKYLAWYQQKPGKAPKLLIYSGSTLQSGVPSRFSGSGSGTDFTLTISSLQPEDFATYYCQQHNEYPWTFGGGTKVEIKRTVAAPSVFIFPPSDEQLKSGTASWCLLNNFYPREAKVQWKVDNALQSGNSQESVTEQDSKDSTYSLSSTLTLSKADYEKHKVYACEVTHQGLSSPVTKSFNRGEC
ARC-7 (N = 37)
  Domvanalimab-related AE: Rash maculo-papular: 3 (8.1%)
  Domvanalimab-related AE: Rhinorrhoea: 1 ( 2.7%)
  Domvanalimab-related AE: Vomiting: 1 ( 2.7%)
ARC-7 (n = 37)
  Any TEAEs: 31 (83.8%)
  TEAE Diarrhoea: 5 (13.5%)
  TEAE Fatigue: 3 (8.1%)
  TEAE Nausea: 4 (10.8%)
  TEAE Pruritus: 4 (10.8%)
Total (n = 99)
  Any TEAEs: 84 (84.8%)
  TEAE Diarrhoea: 10 (10.1%)
  TEAE Fatigue: 12 (12.1%)
  TEAE Nausea: 13 (13.1%)
  TEAE Pruritus: 10 (10.1%)
N = 62
  Any TEAEs: 53 (85.5%)
  TEAE Diarrhoea: 5 (8.1%)
  TEAE Fatigue: 9 (14.5%)
  TEAE Nausea: 9 (14.5%)
  TEAE Pruritus: 6 (9.7%)
Total (N = 99)
  Domvanalimab-related AE: Abdominal distension: 1 ( 1.0%)
  Domvanalimab-related AE: Abdominal pain: 1 ( 1.0%)
  Domvanalimab-related AE: Adrenal insufficiency: 1 ( 1.0%)
  Domvanalimab-related AE: Anaemia: 1 ( 1.0%)
  Domvanalimab-related AE: Any AEs: 50 (50.5%)
  Domvanalimab-related AE: Arthralgia: 4 (4.0%)
  Domvanalimab-related AE: Arthritis: 1 ( 1.0%)
  Domvanalimab-related AE: Aspartate aminotransferase increased: 1 ( 1.0%)
  Domvanalimab-related AE: Asthenia: 1 ( 1.0%)
  Domvanalimab-related AE: Back pain: 2 ( 2.0%)
  Domvanalimab-related AE: Constipation: 2 ( 2.0%)
  Domvanalimab-related AE: Cough: 1 ( 1.0%)
  Domvanalimab-related AE: Decreased appetite: 3 (3.0%)
  Domvanalimab-related AE: Delirium: 1 ( 1.0%)
  Domvanalimab-related AE: Diarrhoea: 5 (5.1%)
  Domvanalimab-related AE: Dry eye: 1 ( 1.0%)
  Domvanalimab-related AE: Dry mouth: 1 ( 1.0%)
  Domvanalimab-related AE: Dyspnoea exertional: 1 ( 1.0%)
  Domvanalimab-related AE: Fatigue: 6 (6.1%)
  Domvanalimab-related AE: Flank pain: 1 ( 1.0%)
  Domvanalimab-related AE: Generalised oedema: 1 ( 1.0%)
  Domvanalimab-related AE: Headache: 4 (4.0%)
  Domvanalimab-related AE: Hot flush: 1 ( 1.0%)
  Domvanalimab-related AE: Hyperglycaemia: 1 ( 1.0%)
  Domvanalimab-related AE: Hyperkalaemia: 1 ( 1.0%)
  Domvanalimab-related AE: Hyperthyroidism: 3 (3.0%)
  Domvanalimab-related AE: Hypokalaemia: 1 ( 1.0%)
  Domvanalimab-related AE: Hypothyroidism: 4 (4.0%)
  Domvanalimab-related AE: Immune-mediated hepatitis: 2 ( 2.0%)
  Domvanalimab-related AE: Influenza like illness: 1 ( 1.0%)
  Domvanalimab-related AE: Infusion related reaction: 2 ( 2.0%)
  Domvanalimab-related AE: Infusion site pain: 1 ( 1.0%)
  Domvanalimab-related AE: Liver function test increased: 1 ( 1.0%)
  Domvanalimab-related AE: Lymphopenia: 1 ( 1.0%)
  Domvanalimab-related AE: Malaise: 2 ( 2.0%)
  Domvanalimab-related AE: Muscle spasms: 1 ( 1.0%)
  Domvanalimab-related AE: Musculoskeletal chest pain: 1 ( 1.0%)
  Domvanalimab-related AE: Myalgia: 1 ( 1.0%)
  Domvanalimab-related AE: Nail disorder: 1 ( 1.0%)
  Domvanalimab-related AE: Nasal mucosal disorder: 1 ( 1.0%)
  Domvanalimab-related AE: Nausea: 6 (6.1%)
  Domvanalimab-related AE: Oral pain: 1 ( 1.0%)
  Domvanalimab-related AE: Pain: 2 ( 2.0%)
  Domvanalimab-related AE: Pancreatitis: 1 ( 1.0%)
  Domvanalimab-related AE: Paraesthesia: 1 ( 1.0%)
  Domvanalimab-related AE: Peripheral sensory neuropathy: 1 ( 1.0%)
  Domvanalimab-related AE: Pneumonitis: 2 ( 2.0%)
  Domvanalimab-related AE: Pruritus: 9 (9.1%)
  Domvanalimab-related AE: Pruritus generalised: 1 ( 1.0%)
  Domvanalimab-related AE: Pulmonary pain: 1 ( 1.0%)
  Domvanalimab-related AE: Pyrexia: 5 (5.1%)
  Domvanalimab-related AE: Rash: 4 (4.0%)
  Domvanalimab-related AE: Rash maculo-papular: 6 (6.1%)
  Domvanalimab-related AE: Rash pruritic: 1 ( 1.0%)
  Domvanalimab-related AE: Rhinorrhoea: 1 ( 1.0%)
  Domvanalimab-related AE: Transaminases increased: 1 ( 1.0%)
  Domvanalimab-related AE: Tumour flare: 3 (3.0%)
  Domvanalimab-related AE: Tumour pain: 1 ( 1.0%)
  Domvanalimab-related AE: Vomiting: 1 ( 1.0%)
Clinical data to date
  tolerability in cancer patients: well tolerated
